Experimental data: the DeepSol protein solubility set

Experiment: soluble on expression in E. coli; label from the status in PepcDB or PDB records

Sequence | soluble on expression in E. coli
MRDAEKTVGNMIDKLKTAFIGSIDSEGFPNMKAMLQPRKREGIKTIYLTTNTSSMRVAQYRENNHACIYFCDTRFFRGVMLRGTMEVLTDPASKEMIWQEGDTMYYPEGVTDPDYCVLKFTAISGRFYSNFKSESFAVE | not soluble
MATFYEVIVRVPFDVEEHLPGISDSFVDWVTGQIWELPPESDLNLTLVEQPQLTVADRIRRVFLYEWNKFSKQESKFFVQFEKGSEYFHLHTLVETSGISSMVLGRYVSQIRAQLVKVVFQGIEPQINDWVAITKVKKGGANKVVDSGYIPAYLLPKVQPELQWAWTNLDEYKLAALNLEERKRLVAQFLAESSQRS | soluble
MGHHHHHHSHMEKIKIIVASDSIGETAELVARAGISQFNPKQCKNELLRYPYIESFEDVDEVIQVAKDTNAIIVYTLIKPEMKQYMSEKVAEFQLKSVDIMGPLMDLLSASVEEKPYNEPGIVHRLDDAYFKKIDAIEFAVKYDDGKDPKGLPKADIVLLGISRTSKTPLSQYLAHKSYKVMNVPIVPEVTPPDGLYDIDPKKCIALKISEEKLNRIRKERLKQLGLGDTARYATEARIQEELNYFEEIVSEIGCPVIDVSQKAIEETANDIIHYIEQNKSK | soluble
YLELNEIESIIKDINTKAQKMHSGIHKRFYLFVALMTEFQALNGMRIGEMLAIQNEDIDFDNKSLNINGTIHWFHDESGGFGVKDTTKTESSYRTIGLSSRSCEILKKAILENKKDSKWNDGYLNRNFVFTNHKGNPMQTERFNKILREAAKDVGIDKEVSSHILRHSHISLLSQQGVSLKAIMDRVGHSDHRTTLSIYSHVTEQMDKDMMNKLEQVKLG | soluble
MSLPLSKTLVQKLQQAGMAIANNQPQIKFTPLSISDEKGKVALDLNIALVPNPKFDLMHSGLYKQFKDFSINFDVNKETAISLLSKFVPENQKQDLVYRMDELIAEGEANGIIVNTDKTVTLTLALENNDLKLNGKPIPEEQLKVVLFILVMGGFGREGHHHHHH | soluble
MIIYVSACRHAVCSETVLDVLGNVSEKMKKGIELARSVAHLELCQDKITFQRRYVAIEFDEDELLDGKSSILAVAVSIYFAIVGLRVPSDLMITGSLNLKGTVIPISGLDKTVKVIKLRITLSGSSSA | not soluble
MPDSSQLVIGAGLDGLPIAQAMRLANRHGLVAGATGTGKTVTLQRLAEAFSDAGVAVFAADIKGDLCGLGAAGNPQGKVAERIAGMPWLKHQPQAYPVTLWDIHGQSGHPLRTTLSEMGPLLLGSLLELTDSQQSALYAAFKVADREGLLLLDLKDLKALLNHLKDNPQLLGDDAALMTTGSSQALLRRLATLEQQGAEALFGEPALQLEDILQPAADGRGRIHLLDASRLVHEAPKVYATFLLWLLAELFEQLPERGDADKPLLALFFDEAHLLFAGTPKALQDRLEQVVRLIRSKGVGVYFVTQSPGDLPDNVLAQLGLRIQHGLRAFTAKEQKSLRAVADGFRPNPAFDAQAVLTELGIGEALVGTLQDKGTPEMVQRVLVAPPQSRIGPLTEAERQALIASSPLLGRYDKPIDRESAYEVLLGRKELAPQDQQPSGKAAAEEPSLADRAGEFLGTAAGQALKSAMRQAANQLGRQLVRGLMGSLLGGSKRR | soluble
MGSDKIHHHHHHMDFIEVYPNALPDDLCDRLILAFDQHTGVVDGQTGNGVDPEKKISRDLTLDNFDDMQPLKNELLSYTLKGVVDYFTQYSMALMGAVAVSVSDAEGKPTTLTPSNFAQLGLPKVDGLVKYLYRSGSINIQKYQRNKGGYPHWHSEQFPQSGHNEALHRVVFYMFYLNDVEEGGETEFYYQRRKISPKKGTMVIAPAGFTHSHRGNMPISNDKYIATSWVMFNRAEQLYTVYA | not soluble
MSSCKSHVYVSAFLLCMLIPISQQVLNEHNQKLEWIVGKWRSEFSGKIFWPTVPTMTFGEELVINEAPIAKSANVQFLNFSARAWSHSTKDHFHDEWGFLTVDPVGNATLMTTGNNGFTTYETGTVSPNKLVLTLKDIGRISFSRDLPVEDLRRTFIRHDDRYMEQVIEMRTATHPKVGYLEHTRVVYTKLK | not soluble
SEILISAVATDLISRFISSVTQNYRNHIHKEDDRRRLERILLRMHSVVEEAGGRHITNQGMILQLKGLVEGFYLGYYMLDKIKFQPPEYEVSHEIQSFALSACNSAKRFRFADAISKRTPVAFGSRSRTNLKDVVDGLETKIADMREFVILLGSHPRLPRQPYSTYLYIDNCMFGRRIEKEQVINFLLCNDPHDPYVSILPIIGPQRIGKKTLVQHACLDERVRDCFSHIFFFKEDDLKTGELSLNSKASQGKYLFVIEFIWDVDEAAWTKFQSYLQNMPATGIKVVVIGRTEDIAKFGTSQPIRVKRLSEEEYWYYFKALAFGSMDPDEHPKLASLAMQLSTEMNGSFLGATMFGELLRANPNTQFWKRILLFLRELARKHLTSSGLHPEDLFERNIPVDLSRIAVVDGQVQDFMVYDVRVAGPAEGELPKLTSRDILLGGDIPVEDKFDVLVWRSRIPPYCNYIVTYEKQKPRRMVGKRNTIYL | soluble
MSELVVIREMQEKDILALDTQFVQQGWPSRQEILMNYLEEQLVKQRTVFVAEKKATLLGYVTLLPLAKEGPFKNLYPEIADFNVFLPFQKQGVGRLLLNRAENVAKSYADTVSLGVGLHPGYGAAQRLYIKQGYVPDGSGVWFQNKQLKPNERCVNDDELVLYLSKKL | not soluble
GPLGSPEFISLTSIPSLREQQHPLIRQLADCIEEVWHQHLDLSPYHLPAELGYVEGRLEGEKLTIENRCYQTPQFRKMHLELAKVGNMLDILHCVMFPRPEYDLPMFGCDLVGGRGQISAAIADLSPVHLDRTLPESYNSALTSLNTLNFSQPRELPEWGNIFSDFCIFVRPSSPEEEAMFLGRVREFLQVHCQGAIAASPVSAEQKQQILAGQHNYCSKQQQNDKTRRVLEKAFGVDWAENYMTTVLFDLPE | soluble
MENSDDIRLIVKIAQLYYEQDMTQAQIARELGIYRTTISRLLKRGRDQGMVTIAINYDYNENLWLEQQLKQKFGLKDVVVVSGNDEDEETQLAMMGLHGAQLLDRLLEPGDIVGFSWGRAVSALVENLPQAGQSRQLICVPIIGGPSGKLESRYHVNTLTYSAAAKLKGESHLADFPALLDNPLIRNGIMQSQHFKTISAYWDNLDIALVGIGSPAIRDGANWHAFYGGEESDDLNARQVAGDICSRFFDIHGAMVETNMSEKTLSIEMNKLKQARYSIGIAMSEEKYSGIIGALRGKYINCLVTNSSTAELLLK | soluble
GIYQHFSIEDRPFLDKGMEWIKKVEDSYAPFLTPFINPHQEKLLKILAKTYGLACSSSGEFVSSEYVRVLLYPDYFQPEFSDFEISLQEIVYSNKFEYLTHAKILGTVINQLGIERKLFGDILVDEERAQIMINQQFLLLFQDGLKKIGRIPVSLEERPFTEKID | soluble
MKIQDYTKQMVDEKSFIDMAYTLLNDKGETMNLYDIIDEFRALGDYEYEEIENRVVQFYTDLNTDGRFLNVGENLWGLRDWYSVDDIEEKIAPTIQKFDILDADDEEDQNLKLLGEDEMDDDDDIPAQTDDQEELNDPEDEQVEEEINHSDIVIEEDEDELDEDEEVFEDEEDFND | not soluble
MASSASDGTHERSAFRLSPPVLSGAMGPFMHTGLYVAQSWRDYLGQQPDKLPIARPTIALAAQAFRDEIVLLGLKARRPVSNHRVFERISQEVAAGLEFYGNRRWLEKPSGFFAQPPPLTEVAVRKVKDRRRSFYRIFFDSGFTPHPGEPGSQRWLSYTANNREYALLLRHPEPRPWLVCVHGTEMGRAPLDLAVFRAWKLHDELGLNIVMPVLPMHGPRGQGLPKGAVFPGEDVLDDVHGTAQAVWDIRRLLSWIRSQEEESLIGLNGLSLGGYIASLVASLEEGLACAILGVPVADLIELLGRHCGLRHKDPRRHTVKMAEPIGRMISPLSLTPLVPMPGRFIYAGIADRLVHPREQVTRLWEHWGKPEIVWYPGGHTGFFQSRPVRRFVQAALEQSGLLDAPRTQRDRSA | not soluble
MSLTGRAVIGVIGNAHLVDNRFAVQHVGERNLRAVAEVAGALPLMFGGSSEFAQIEDLLEVVDGILLTGGRANVHPTYFKTAPNPRHEPYDQPRDELALALVRTCVERGVPLFGICRGFQEMNVAYGGSLHPEIRELPGRMNHRMPRLENGEIHPDPTVVFADRHDVQLTSDGVFARLLGRDLIRVNSLHGQGILEPGPRIVIEGVAEDGTIEAIRIADAPGFALGVQWHAEYDPQVNPINRALFVAFGEAVSAYRTARKRPAALRRSEGHHHHHH | soluble
MSLARSRARVETIAELERTNAALQQALDENAALHAQLLVQAREAGVADERRRLAAEIHDTLAQGLTGIIAQLQVVAAAPDPALGREHLDRALALARHSLGEARRSVHNLSPVALAEDGLPDALKKTVTEWGARTGVQARFTVTGTAEHLHDEVAATLLRIAQEALSNTARHAAADRVGVTLSYMGDEVTLDIRDDGRGFDPLTARECGPGGGFGLDGMRARAERIAGSLTVEAEPGHGTAVSARVPLVRHDREGHHHHHH | soluble
VIIDTSALLAYFDAAEPDHAAVSECIDSSADALVVSPYVVAELDYLVATRVGVDAELAVLRELAGGAWELANCGAAEIEQAARIVTKYQDQRIGIADAANVVLADRYRTRTILTLDRRHFSALRPIGGGRFTVIP | not soluble
MIVPGGFPAPVTGSAVAASPPLPTVRLLSLDAHGRVLDWINWQDAACLYARDAVSWTLGEPCMQIHGGVSRLTGERSVLELHPIIAARGHARSRALDPTPTLTNTALFARDSQLCMYCGQHFSRPHLTRDHVMPVSKGGRDSWENVVTACFQCNSRKANRTPQQAHMPLLAVPYRPSWIEHLILSNRNILSDQMAFLRAQLPKRSKLSLLEHHHHHH | not soluble
MKRGIIIIEDKKVSVTGNEVWMTATEIAGLFRAGVPAVNAAIKAVRKSDVLNDYEVCRYMRLENGLHADVYALEIIIPIAFRLNTYCTHVFRRWLVEKALAKEKQQAYVMLIHKANGYC | not soluble
MKVAILGASGWIGSHLAAEAKMRGHEVVAVVRDPAKVTLKGVAVQQLDILNPESSLKSVLEGVDAVIASIGGRAAGNHEMVAKTAQRLLNELPQAGVARLLWVGGAGSLEVAPGVKLVTVPGFPEEYKGEALAQGEALEVFRASNSDVNWTFVSPAAEIFPGDKQGQYRVGGDQLLTDSEGNSRISVADYAVALIDELEYAEHPRQRIGVAYLEHHHHHH | not soluble
MGSDKIHHHHHHMPHSVPPLTDIGPLPTASTVRTVVFSDFDETYLAHSGTPEQVRSRQALENYLEDAGERHGLLFGWVTGSSLSSVLGKARRHGLRFLPHFIACSLGTELHVISEAGIQPEPGWQRRMLTTGEHLEGLAEEAFRELRTRGVPLVPQSCRAPGSRVISYYYFAQDPERDARQLALIRRTADRLSLGVNLSRCNPAAGDPDDCYDVDFLPRDCGKRHIVEYICRLYAVSEADAFAFGDSGNDLEMLTAVGRGLLVGNCTEEARARYPQVSARSHADAILSELRGVLP | not soluble
GKSIFDKLWDRHVITGKEGEPQLMYVDQHYIHEVTSPQAFQGLRDAGRKVRRPDLTFGTFDHNVPTVNIYDIRDVISKAQMDALARNVIEFNIPHADHGSENQGIVHMVGPETGRTQPGKFIVCGDSHTATHGAFGAIGFGIGTTEVEHVFATQTIWQVKPKK | not soluble
